Data from PMC6947844.
Substitutions are numbered along the chain they refer to.

B1: monoclonal antibody 1D9 (antibody, V domains shown)
VH: QVQLKQSGRSLVQPSQSLSITCTVSGFSLTDYGVHWIRQSPGKGLEWLGVIWRSGRTDYNAVFMSRLSITKDNSKSQVFFKMNGLQTDDTAIYYCAKNGPFGNFAGYWGQGTPVAVSA
VL: DIVMSQSPSSLAVSVGEKVTMRCRSSQSLLDSYHQKNYLAWYLQKPGQSPKLLIYWASTRESGVPDRFTGSGSGTDFTLTISSVKAEDLAVYYCQEYYRYPYTFGGGTKLEIK
B2: monoclonal antibody 11E11 (antibody, V domains shown)
VH: B1 VH with R9P, D31N, I51K, S54G, V62A, K71R, K75R, G84S, P113L, A115T
VL: DIVMSQSPSSLAVSVGEKVSLTCKSSQSLLDNQKHYLAWYQQKPGQSPKLLIYWASTRESGVPDRFTGSGSGTEFTLTISSVKAEDLAVYYCQQFYNYPYTFGGGTKLEIK
B3: monoclonal antibody 4A4 (antibody, V domains shown)
VH: B1 VH with Q86L, T87I, D88E
VL: B1 VL with V91A
B4: monoclonal antibody 3D10 (antibody, V domains shown)
VH: QVQLKQSGPGLVQPSQSLSIICTVSGFSLTRNGVHWVRQSPGKGLEWVGVIWRSGRTDYDAAFMSRLSITKDNSKSQVFFKMNSLQADDTAIYYCVKNGDDGNYGTYWGQGTLVTVSA
VL: DIVMSQSPSSLGVSVGEKVTMSCKSSQSLLDSRNQKNYLAWYQQKPGQSPKLLIYWASTRESGVPDRFTGSGSGTEFTLTISSVKAEDLAIYYCQQYYNYPYTFGGGTKLEIT
B5: monoclonal antibody 9G11 (antibody, V domains shown)
VH: B4 VH with I21T, S54G
VL: B4 VL
B6: monoclonal antibody 11G3 (antibody, V domains shown)
VH: QVQLKQSGPSLVQPSQSLSITCTVSGFSLTNYGVHWVRQSPGKGLEWLGVMWRGGRTDYNAAFMSRLSITKDNSRSQVFFKMNSLQTDDAAIYYCAKNGPFGNFAGYWGQGTLVTVST
VL: B2 VL with A12P, Q27R
B7: monoclonal antibody 40H3 (antibody, V domains shown)
VH: QVQLKQSGPGLVQPSQSLSITCTVSGFSLTNYGIHWLRQSPGKGLEWLGMMWRGGGTDYNAAFISRLTITKDTSKSQVFFRMNNLQTNDTAIYYCARKGVGMGLGYWGQGTSVTVSS
VL: DIQMTQSPASQSASLGESVTITCLASQTIGTWVAWYQQKPGRSPQLLIYGATNLADGVPSRFSGSGSGTKFSFKISSLQAEDFVSYYCQQLYSNPYTFGGGTKLEIK

Legend:
[1] = molecular target: wtEGFR at physiological levels on WI-38 cells (human (endogenous in WI-38)) (UniProt P00533); assay: […], FACS buffer
[2] = molecular target: human wtEGFR on F98_(EGFR) cells (human) (UniProt P00533); assay: […], FACS buffer

Binder | median fluorescence intensity [1] | median fluorescence intensity [2]
B1 | < 100 units | –
B2 | < 100 units | –
B3 | < 100 units | –
B4 | < 100 units | –
B5 | < 100 units | –
B6 | < 100 units | –
B7 | < 100 units | 187 units
